Patent US20240317840A1

Legend:
[1] = molecular target: HBsAg of HBV genotype D, serotype ayw (Hepatitis B virus); assay: cell-based or functional assay
[2] = molecular target: HBsAg AD serotype (Hepatitis B virus); assay: SPR epitope binning; competitor (1st, saturating Ab): CR8087
[3] = molecular target: HBsAg AY serotype (Hepatitis B virus); assay: as above
[4] = molecular target: HBsAg AD serotype (Hepatitis B virus); assay: SPR epitope binning; competitor (1st, saturating Ab): NOV3540
[5] = molecular target: HBsAg AY serotype (Hepatitis B virus); assay: as above
[6] = molecular target: HBsAg AD serotype (Hepatitis B virus); assay: SPR epitope binning; competitor (1st, saturating Ab): NOV3832
[7] = molecular target: HBsAg AY serotype (Hepatitis B virus); assay: as above
[8] = molecular target: HBsAg AD serotype (Hepatitis B virus); assay: SPR epitope binning; competitor (1st, saturating Ab): HBC34 (self)
[9] = molecular target: HBsAg AY serotype (Hepatitis B virus); assay: as above
[10] = molecular target: HBsAg AD serotype (Hepatitis B virus); assay: SPR epitope binning; competitor (1st, saturating Ab): NOV3841
[11] = molecular target: HBsAg AY serotype (Hepatitis B virus); assay: as above
[12] = molecular target: HBsAg AD serotype (Hepatitis B virus); assay: SPR epitope binning; competitor (1st, saturating Ab): NOV3842
[13] = molecular target: HBsAg AY serotype (Hepatitis B virus); assay: as above

Row | Substance | Virus neutralization EC50 [1] [nM] | binding of second antibody (% of its binding as first antibody) [2] | binding of second antibody (% of its binding as first antibody) [3] | binding of second antibody (% of its binding as first antibody) [4] | binding of second antibody (% of its binding as first antibody) [5] | binding of second antibody (% of its binding as first antibody) [6] | binding of second antibody (% of its binding as first antibody) [7] | binding of second antibody (% of its binding as first antibody) [8] | binding of second antibody (% of its binding as first antibody) [9] | binding of second antibody (% of its binding as first antibody) [10] | binding of second antibody (% of its binding as first antibody) [11] | binding of second antibody (% of its binding as first antibody) [12] | binding of second antibody (% of its binding as first antibody) [13]
1 | Neg. Control (antibody) | > 500 | – | – | – | – | – | – | – | – | – | – | – | –
2 | HBC34 (antibody) | – | 146 | 166 | 121 | 131 | 126 | 257 | 0 | 0 | 124 | 151 | 121 | 134
